The text below walks through data of article PMC5366859.

The subject of the series is MBP-rAtCHE (Arabidopsis thaliana (homoeolog cloned from resynthesized A. thaliana x A. arenosa allotetraploid)). In words: EMSA. To be noted: reference for normalization; 25 mM HEPES pH 7.5, 2.5 mM DTT, 75 mM KCl, 10% glycerol, 1.25 ng poly-dIdC, 10 nM (~15 fmol) DNA, on ice 20 min; 5% native PAGE.

In turn, AtCCA1p came in with a binding signal (fold (reference for rAaCHE)) of 1.
